Measurements reported in publication PMC9897468.

How the values were obtained:
microtubules (MTs) [1] = assay: TIRF-M dwell time on microtubules with EB1
microtubules (MTs) [2] = assay: TIRF-M dwell time of diffusing molecules on microtubules
[3] = molecular target: Alexa-647-labeled KIF5AA (mouse) (UniProt P33175); assay: dual color TIRF-M in vitro motility reconstitution
Alexa-647-labeled KIF5AA (mouse), sequence (P33175 whole entry): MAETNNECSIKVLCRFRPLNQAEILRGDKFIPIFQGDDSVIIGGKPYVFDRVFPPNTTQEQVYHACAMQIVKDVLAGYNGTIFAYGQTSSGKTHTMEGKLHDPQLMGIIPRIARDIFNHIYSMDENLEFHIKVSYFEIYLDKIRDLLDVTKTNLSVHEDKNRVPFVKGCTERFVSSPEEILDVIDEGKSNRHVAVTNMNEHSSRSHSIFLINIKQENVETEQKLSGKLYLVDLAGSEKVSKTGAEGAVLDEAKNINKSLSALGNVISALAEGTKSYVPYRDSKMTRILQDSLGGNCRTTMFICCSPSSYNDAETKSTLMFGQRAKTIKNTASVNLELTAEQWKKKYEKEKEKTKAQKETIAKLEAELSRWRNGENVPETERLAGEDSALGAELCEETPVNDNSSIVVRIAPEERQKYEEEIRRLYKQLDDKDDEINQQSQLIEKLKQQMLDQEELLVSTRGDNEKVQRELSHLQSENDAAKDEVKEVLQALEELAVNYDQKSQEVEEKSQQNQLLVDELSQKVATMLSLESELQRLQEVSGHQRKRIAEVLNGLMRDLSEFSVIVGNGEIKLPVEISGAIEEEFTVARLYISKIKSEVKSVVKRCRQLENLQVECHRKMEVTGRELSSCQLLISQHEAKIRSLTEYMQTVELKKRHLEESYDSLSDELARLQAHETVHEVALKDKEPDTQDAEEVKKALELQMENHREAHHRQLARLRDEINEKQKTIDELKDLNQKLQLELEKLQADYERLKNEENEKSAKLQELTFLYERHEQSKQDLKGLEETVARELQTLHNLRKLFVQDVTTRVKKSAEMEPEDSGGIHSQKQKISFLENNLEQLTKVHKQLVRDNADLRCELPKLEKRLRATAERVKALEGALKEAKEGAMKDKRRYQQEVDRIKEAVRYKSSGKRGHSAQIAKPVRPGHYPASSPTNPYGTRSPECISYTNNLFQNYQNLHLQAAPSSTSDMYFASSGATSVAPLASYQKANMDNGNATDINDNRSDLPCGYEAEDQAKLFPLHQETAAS

dwell time with EB1 (fast and slow components) (microtubules (MTs) [1]): > 60 s
dwell time, long diffusion events (microtubules (MTs) [2]): 26.3 s
percent of processive KIF5AA-647 that transports APC–TMR [3]: 25%
Substance: adenomatous polyposis coli (APC), full-length, Q61315 1-2845
